Among the data in patent US20250236673A1 (Ablynx, published 2025) are Kd, koff and kon values, retold here.

The target in one test is T1, human serum albumin (human, UniProt P02768 25-609).
T1 construct: Immobilised by amine coupling on a C1 chip; also called HSA
Kind of test: SPR Biacore 8K+, HSA amine-coupled on C1 chip, ISVD analyte, 1:1 fit.

For test [1], the target named is T2, recombinant human CEACAM5 (human, UniProt P06731 35-685, limits assumed).
T2 construct: Immobilised by amine coupling on a CM5 chip
T2 sequence (looked up): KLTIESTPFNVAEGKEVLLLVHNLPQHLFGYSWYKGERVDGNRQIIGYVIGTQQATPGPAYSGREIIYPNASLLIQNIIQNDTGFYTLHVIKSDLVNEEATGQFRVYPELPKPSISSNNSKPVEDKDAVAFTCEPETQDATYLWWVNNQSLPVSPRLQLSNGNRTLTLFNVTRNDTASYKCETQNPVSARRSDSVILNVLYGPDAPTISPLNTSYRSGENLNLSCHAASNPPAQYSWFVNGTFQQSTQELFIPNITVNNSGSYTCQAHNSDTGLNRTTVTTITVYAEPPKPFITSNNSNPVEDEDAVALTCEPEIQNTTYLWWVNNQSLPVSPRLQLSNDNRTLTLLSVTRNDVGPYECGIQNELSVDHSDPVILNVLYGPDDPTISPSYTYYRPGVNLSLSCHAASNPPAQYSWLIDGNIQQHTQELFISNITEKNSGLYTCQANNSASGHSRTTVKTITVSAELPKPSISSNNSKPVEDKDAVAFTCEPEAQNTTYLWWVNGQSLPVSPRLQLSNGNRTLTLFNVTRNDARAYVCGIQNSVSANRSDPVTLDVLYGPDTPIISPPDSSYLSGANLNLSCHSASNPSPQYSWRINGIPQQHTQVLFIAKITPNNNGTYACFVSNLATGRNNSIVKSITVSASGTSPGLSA
Put plainly: SPR Biacore 8K+, CEACAM5 amine-coupled on CM5, ISVD analyte, 1:1 fit.

Where a chain is given by its changes, count along the chain named. Names and notes keep the numbering of the source.

T1 sequence (P02768 25-609 limits assumed): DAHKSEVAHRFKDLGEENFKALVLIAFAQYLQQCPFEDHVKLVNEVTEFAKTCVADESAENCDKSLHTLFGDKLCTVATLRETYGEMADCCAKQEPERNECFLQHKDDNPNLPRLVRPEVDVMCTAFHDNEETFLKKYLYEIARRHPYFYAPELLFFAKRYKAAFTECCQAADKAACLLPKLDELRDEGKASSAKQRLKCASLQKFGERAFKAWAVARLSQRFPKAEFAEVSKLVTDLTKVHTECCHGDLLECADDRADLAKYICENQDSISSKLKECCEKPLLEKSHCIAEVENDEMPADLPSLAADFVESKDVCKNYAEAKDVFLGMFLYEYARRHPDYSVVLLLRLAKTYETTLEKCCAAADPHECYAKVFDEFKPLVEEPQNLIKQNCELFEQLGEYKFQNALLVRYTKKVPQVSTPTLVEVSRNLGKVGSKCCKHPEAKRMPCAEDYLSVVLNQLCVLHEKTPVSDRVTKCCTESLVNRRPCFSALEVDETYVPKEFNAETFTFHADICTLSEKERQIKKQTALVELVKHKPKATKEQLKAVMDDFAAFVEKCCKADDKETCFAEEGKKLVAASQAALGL

B1: T028501806 (VHH)
VHH: EVQLVESGGGVVQPGGSLRLSCAASGFTFRSFGMSWVRQAPGEGPEWVSSISGSGSDTLYADSVKGRFTISRDNSKNTLYLQMNSLRPEDTALYYCTIGGSLSRSSQGTLVTVSS
notes: K43E vs precursor T028501805; also called HSA006A06(K43E, K83R)
In the test with human serum albumin, B1 had a Kd of 1.26 nM, a koff of 0.00108 s⁻¹ and a kon of 856000 M⁻¹ s⁻¹.

B2: T028501808 (VHH)
VHH: B1 VHH with E43H
notes: K43H vs precursor T028501805; also called HSA006A06(K43H, K83R)
In the test with human serum albumin, B2 came in with a Kd of 1.4 nM, a koff of 0.00102 s⁻¹ and a kon of 728000 M⁻¹ s⁻¹.

B3: T028501807 (VHH)
VHH: B1 VHH with E43Q
notes: K43Q vs precursor T028501805; also called HSA006A06(K43Q, K83R)
For B3, in the test with human serum albumin, the Kd worked out at 1.76 nM, the koff came to 0.00119 s⁻¹ and the kon came out at 677000 M⁻¹ s⁻¹.

B4: T028501817 (VHH)
VHH: EVQLVESGGGVVQPGGSLRLSCAASGHTFSEYALGWFRQAPGKEREFVAAINWGGGWTYYADSVKGRFTISRDNAKNTLYLQMNSLRPEDTALYYCAASSDYAGGNPTGYPYWGQGTLVTVSS
notes: also called A031500099; A0315024B02(L11V, A14P, D16G S23A, M43K, Q64K, K83R, G85E, G89L)
On to B4, for which, in test [1], the Kd stood at 8.9 nM, the koff stood at 0.00212 s⁻¹ and the kon stood at 238000 M⁻¹ s⁻¹.

B5: T028501819 (VHH)
VHH: B4 VHH with K43Q
notes: K43Q vs precursor T028501817; also called A0315024B02(M43Q, Q64K, K83R)
Turning to B5, in test [1], the Kd was determined as 8.74 nM, the koff worked out at 0.00199 s⁻¹ and the kon was 228000 M⁻¹ s⁻¹.

B6: T028501818 (VHH)
VHH: B4 VHH with K43E
notes: K43E vs precursor T028501817; also called A0315024B02(M43E, Q64K, K83R)
Turning to B6, in test [1], the Kd was 10.5 nM, the koff was 0.00226 s⁻¹ and the kon was 215000 M⁻¹ s⁻¹.

B7: T028501832 (VHH)
VHH: B4 VHH with K76A
notes: K75A vs precursor T028501817; also called A0315024B02(M43K, Q64K,K75A, K83R)
For the molecule B7, in test [1], the Kd came out at 6.34 nM, the koff amounted to 0.00204 s⁻¹ and the kon came out at 322000 M⁻¹ s⁻¹.

B8: T028501828 (VHH)
VHH: B4 VHH with K76E
notes: K75E vs precursor T028501817; 38 used; also called A0315024B02(M43K, Q64K, K75E, K83R)
As to B8, in test [1], the Kd was 7.51 nM, the koff was 0.00203 s⁻¹ and the association rate constant (kon) is 270000 M⁻¹ s⁻¹.

B9: T028501824 (VHH)
VHH: B4 VHH with K65Q
notes: also called A0315024B02(M43K, (K64K83R))
In the case of B9, in test [1], the dissociation constant Kd came to 12.2 nM, the koff came out at 0.00249 s⁻¹ and the kon was 205000 M⁻¹ s⁻¹.

B10: T028501827 (VHH)
VHH: B4 VHH with K65A
notes: K64A vs precursor T028501817; also called A0315024B02(M43K, Q64A, K83R)
B10: in test [1], the Kd was 7.95 nM, the koff turned out to be 0.00235 s⁻¹ and the kon came to 295000 M⁻¹ s⁻¹.

B11: T028501826 (VHH)
VHH: B4 VHH with K65H
notes: K64H vs precursor T028501817; also called A0315024B02(M43K, Q64H, K83R)
Turning to B11, in test [1], the Kd worked out at 8.42 nM, the koff was determined as 0.00232 s⁻¹ and the kon stood at 275000 M⁻¹ s⁻¹.

B12: T028501831 (VHH)
VHH: B4 VHH with K76H
notes: K75H vs precursor T028501817; also called A0315024B02(M43K, Q64K, K75H, K83R)
On to B12, for which, in test [1], the Kd was found to be 7.8 nM, the koff came to 0.00209 s⁻¹ and the kon worked out at 268000 M⁻¹ s⁻¹.

B13: T028501830 (VHH)
VHH: B4 VHH with K76R
notes: K75R vs precursor T028501817; also called A0315024B02(M43K, Q64K, K75R, K83R)
With B13, in test [1], the Kd was 6.01 nM, the koff was 0.00207 s⁻¹ and the kon stood at 344000 M⁻¹ s⁻¹.

B14: T028501825 (VHH)
VHH: B4 VHH with K65R
notes: K64R vs precursor T028501817; also called A0315024B02(M43K, Q64R, K83R)
Consider B14, for which, in test [1], the Kd worked out at 7.27 nM, the koff was 0.00241 s⁻¹ and the kon was 331000 M⁻¹ s⁻¹.

B15: T028501820 (VHH)
VHH: B4 VHH with K43R
notes: K43R vs precursor T028501817; also called A0315024B02(M43R, Q64K, K83R)
Consider B15, for which, in test [1], the Kd is 7.13 nM, the koff worked out at 0.00172 s⁻¹ and the on-rate (kon) turned out to be 242000 M⁻¹ s⁻¹.

B16: T028501823 (VHH)
VHH: B4 VHH with K65E
notes: K64E vs precursor T028501817; also called A0315024B02(M43K, Q64E, K83R)
B16: in test [1], the equilibrium dissociation constant (Kd) came to 18.2 nM, the koff was 0.00282 s⁻¹ and the kon was found to be 155000 M⁻¹ s⁻¹.

B17: T028501829 (VHH)
VHH: B4 VHH with K76Q
notes: K75Q vs precursor T028501817; also called A0315024B02(M43K, Q64K, K75Q, K83R)
In the case of B17, in test [1], the Kd came out at 7.14 nM, the koff turned out to be 0.00208 s⁻¹ and the kon was determined as 291000 M⁻¹ s⁻¹.

B18: T028501821 (VHH)
VHH: B4 VHH with K43H
notes: K43H vs precursor T028501817; also called A0315024B02(M43H, Q64K, K83R)
With B18, in test [1], the Kd came to 9.11 nM, the koff came to 0.00193 s⁻¹ and the on-rate constant (kon) worked out at 212000 M⁻¹ s⁻¹.

B19: T028501822 (VHH)
VHH: B4 VHH with K43A
notes: K43A vs precursor T028501817; also called A0315024B02(M43A, Q64K, K83R)
Take B19: in test [1], the Kd was found to be 8.77 nM, the koff worked out at 0.00198 s⁻¹ and the kon is 225000 M⁻¹ s⁻¹.

B20: T028501790 (VHH)
VHH: EVQLVESGGGVVQPGGSLRLSCAASGLTFSTYTMGWFRQAPGEEREFVAAIIWSGSNTYYADSVKGRFTISRDNAKNTVYLQMNSLRPEDTALYYCAAQHFGPIGLTTRGYHYWGQGTLVTVSS
notes: K43E vs precursor T028501789; also called A0315007E07(K43E)
With B20, in test [1], the Kd stood at 1.71 nM, the koff stood at 0.00085 s⁻¹ and the kon came out at 498000 M⁻¹ s⁻¹.

B21: T028501799 (VHH)
VHH: B20 VHH with E43K, K65A
notes: K64A vs precursor T028501789; also called A0315007E07(K64A)
Turning to B21, in test [1], the Kd is 2.54 nM, the koff is 0.000976 s⁻¹ and the kon was found to be 385000 M⁻¹ s⁻¹.

B22: T028501800 (VHH)
VHH: B20 VHH with E43K, K76E
notes: K75E vs precursor T028501789; also called A0315007E07(K75E)
As for B22, in test [1], the Kd stood at 1.72 nM, the koff came to 0.000911 s⁻¹ and the kon worked out at 529000 M⁻¹ s⁻¹.

B23: T028501791 (VHH)
VHH: B20 VHH with E43Q
notes: K43Q vs precursor T028501789; also called A0315007E07(K43Q)
Turning to B23, in test [1], the equilibrium dissociation constant (Kd) turned out to be 1.45 nM, the koff turned out to be 0.00087 s⁻¹ and the kon came out at 602000 M⁻¹ s⁻¹.

B24: T028501803 (VHH)
VHH: B20 VHH with E43K, K76H
notes: K75H vs precursor T028501789; also called A0315007E07(K75H)
As for B24, in test [1], the Kd amounted to 1.46 nM, the koff was determined as 0.00084 s⁻¹ and the on-rate constant (kon) was 574000 M⁻¹ s⁻¹.

B25: T028501795 (VHH)
VHH: B20 VHH with E43K, K65E
notes: K64E vs precursor T028501789; also called A0315007E07(K64E)
As for B25, in test [1], the dissociation constant Kd is 3.55 nM, the off-rate constant (koff) was 0.000914 s⁻¹ and the kon was determined as 258000 M⁻¹ s⁻¹.

B26: T028501802 (VHH)
VHH: B20 VHH with E43K, K76R
notes: K75R vs precursor T028501789; also called A0315007E07(K75R)
On to B26, for which, in test [1], the Kd amounted to 1.39 nM, the koff came out at 0.000897 s⁻¹ and the kon turned out to be 643000 M⁻¹ s⁻¹.

B27: T028501797 (VHH)
VHH: B20 VHH with E43K, K65R
notes: K64R vs precursor T028501789; also called A0315007E07(K64R)
For the molecule B27, in test [1], the Kd came to 1.59 nM, the off-rate constant (koff) turned out to be 0.00107 s⁻¹ and the kon stood at 675000 M⁻¹ s⁻¹.

B28: T028501794 (VHH)
VHH: B20 VHH with E43A
notes: K43A (Kabat) vs precursor T028501789; also called A0315007E07(K43A)
With B28, in test [1], the Kd stood at 1.54 nM, the koff worked out at 0.000865 s⁻¹ and the association rate constant (kon) worked out at 562000 M⁻¹ s⁻¹.

B29: T028501793 (VHH)
VHH: B20 VHH with E43H
notes: K43H vs precursor T028501789; also called A0315007E07(K43H)
Take B29: in test [1], the dissociation constant (Kd) came out at 1.22 nM, the koff is 0.000877 s⁻¹ and the kon was found to be 719000 M⁻¹ s⁻¹.

B30: T028501804 (VHH)
VHH: B20 VHH with E43K, K76A
notes: K75A vs precursor T028501789; also called A0315007E07(K75A)
In the case of B30, in test [1], the Kd was determined as 1.56 nM, the koff was found to be 0.000917 s⁻¹ and the on-rate (kon) was determined as 586000 M⁻¹ s⁻¹.

B31: T028501801 (VHH)
VHH: B20 VHH with E43K, K76Q
notes: K75Q vs precursor T028501789; also called A0315007E07(K75Q)
As for B31, in test [1], the Kd amounted to 1.58 nM, the koff is 0.000913 s⁻¹ and the kon was 579000 M⁻¹ s⁻¹.

B32: T028501792 (VHH)
VHH: B20 VHH with E43R
notes: K43R vs precursor T028501789; also called A0315007E07(K43R)
In the case of B32, in test [1], the Kd was 1.23 nM, the koff came to 0.00092 s⁻¹ and the kon worked out at 747000 M⁻¹ s⁻¹.

B33: T028501796 (VHH)
VHH: B20 VHH with E43K, K65Q
notes: K64Q vs precursor T028501789; also called A0315007E07(K64Q)
Take B33: in test [1], the Kd worked out at 2.24 nM, the koff came out at 0.000929 s⁻¹ and the kon amounted to 415000 M⁻¹ s⁻¹.

B34: T028501798 (VHH)
VHH: B20 VHH with E43K, K65H
notes: K64H vs precursor T028501789; also called A0315007E07(K64H)
For the molecule B34, in test [1], the Kd was 2.39 nM, the koff turned out to be 0.000962 s⁻¹ and the kon came to 402000 M⁻¹ s⁻¹.
